Results: patent US20190184015A1, “IRRADIATION TREATMENT OF NEUROLOGICAL SENSATIONS BY PHOTOABLATION” (European Molecular Biology Laboratory, priority 2016, published 2019)
Entries after “also recorded” stand apart in the source; their conditions may differ.

What was measured:
[1] = tested on: TrkB positive afferents; test: Innervation of skin and DRG neuron counts after photoablation; assay type: in vivo, mouse; details: 7 days after photoablation (13 days post-SNI)
Text: Prior to photoablation, TrkB positive lanceolate endings were detected around hair follicles (FIG. 9a) and innervating Meissner corpuscles in the plantar surface of the paw. […] It was further investigated whether loss of TrkB^CreERT2 neurons was also evident at the level of the cell soma by analyzing the number of TrkB^CreERT2 positive neurons in the DRG.

[2] = tested on: primary keratinocytes; test: In-vitro photo-ablation of primary keratinocytes (propidium iodide staining); assay type: cell-based, mouse; details: wild type keratinocytes; near infra-red light; 24 hours after
Protocol: 1 μM IL31^SNAP and 3 μM BG-IR700 were coupled for 1 hour at 37° C. The coupling reaction was applied for 10 minutes at 37° C. on primary wild type and IL31RA^−/− keratinocytes. Cells were then exposed to near infra-red light (680 nm) at 40 J/cm^2 for 2 minutes. 24 hours after light exposure cell death was assessed by Propidium iodide (PI) staining (Invitrogen #P3566) and cells were imaged with an epifluorescent microscope.

[3] = tested on: Calcipotriol model of atopic dermatitis; test: Calcipotriol model of atopic dermatitis; details: prevention: injection and near IR illumination 3 days prior to Calcipotriol
[4] = tested on: HEK293T cells expressing TrkB/p75; test: BDNF^SNAP-IR700 photoablation of HEK293T cells (propidium iodide); assay type: cell-based; details: HEK293T cells expressing TrkB/p75; 24 hours after brief illumination
Text: In initial experiments BDNF^SNAP-IR700 was applied to HEK293T cells expressing TrkB/p75 and cell death assayed following near infrared illumination.

[5] = tested on: TrkB positive neurons; test: Diphtheria toxin mediated ablation of TrkB+ sensory neurons in TrkBCreERT2::AviliDTR mice; assay type: in vivo, mouse; details: systemic injection; DRG sections
[6] = tested on: IL31 Receptor A (IL31RA); test: Binding studies in primary keratinocyte cultures with BG-Surface549 labelled ligand; parameters: species or system mouse
Text: The inventors produced recombinant IL31 with a C-terminal fusion of SNAP (IL31^SNAP) in E. Coli. […] To determine whether IL31^SNAP was functional the inventors first performed binding studies in primary keratinocyte cultures. IL31^SNAP was labelled in vitro with BG-Surface549 and applied to keratinocytes from wildtype or IL31 Receptor A (IL31RA) knockout mice (IL31RA^−/−). […] The inventors further examined IL31^SNAP labelling in vivo by injecting IL31^SNAP-Surface549 intradermally into the back skin of wild type and IL31RA^−/− mice. […] Finally, the inventors determined whether IL31^SNAP was active by quantifying scratching behavior in mice upon intradermal injection. […] Thus the IL31^SNAP retains the functional properties of native IL31.
Primary keratinocytes were isolated from 1-3 day-old wild type and IL31RA^−/− mice as previously described (25). Briefly, newborn mouse skin was removed and incubated flat in cold and freshly thawed trypsin overnight, at 4° C., with the dermis side down. The next day, epidermis was peeled off, triturated and keratinocytes were cultured in serum free media (Invitrogen #10744-019) on Collagen I (Sigma #3867)-coated dishes (Ibidi #81151). All experiments were performed on 48-72 hours cultured cells.
Cells were incubated with the coupling reaction for […] at 37° C., then washed 3 times in CIB; and imaged using confocal microscope.

[7] = tested on: phosphorylated Akt, pMAPK and pSTAT3; test: Immunoblot of IL31 downstream signaling in injected skin; assay type: in vivo, mouse; details: skin harvested 1 hour after subcutaneous injection, 5 μM
Text: A conceptual problem of using IL31^SNAP therapeutically is that it in itself evokes itch. The inventors therefore sought to engineer IL31^SNAP to obtain a ligand that still binds to IL31 receptor complex but no longer promotes signaling. […] The K138A mutation denotes the murine IL31 mutations. The corresponding mutation in the human IL31 protein is at position K134 in the human IL31 (SEQ ID NO: 1). The inventors generated a recombinant IL31^K138A-SNAP fusion protein, labelled it with BG-Surface549 and applied it to keratinocytes. […] Importantly, such signal was not present in IL31RA^−/− keratinocytes (FIG. 2b). The inventors further assessed cellular signaling pathways activated by IL31^SNAP and […] in the skin by examining levels of phosphorylated Akt, pMAPK and pSTAT3 which have all been previously implicated in IL31 downstream signaling (14, 21, 22). […]
To assess the coupling reaction, 10 and 20 pmol IL31^SNAP was coupled with 30 and 60 pmol BG549 respectively for 1 hour at 37° C. […] The bands corresponding to the binding of IL31^SNAP with BG549 were visualized by gel fluorescence. […] Protein lysate was quantified by Bradford assay. […] Bands were visualized using the ECL detection system (Amersham #RPN2106); band density was calculated using ImageJ and the levels of phosphorylated proteins were normalized to the total counterpart.

[8] = tested on: wild type and IL31RA^−/− mice; test: Scratching behavior upon intradermal injection of the ligand; assay type: in vivo, mouse; details: 5 μM

| Molecule | fluorescent signal in keratinocytes ([6]; IL31RA^−/− keratinocytes) | fluorescent signal in keratinocytes ([6]; wildtype keratinocytes) | phosphorylation of Akt, MAPK and STAT3 in skin [7] | scratching behavior evoked by the ligand ([8]; IL31RA^−/− mice) | scratching behavior evoked by the ligand ([8]; wildtype mice) | other results |
| --- | --- | --- | --- | --- | --- | --- |
| BG-PEG11-IRDye®700DX [IR700] |  |  |  |  |  | innervation of hairy and glabrous skin [1]: no apparent reduction in innervation; cell death after illumination [2]: not evident; development of atopic dermatitis-like indicators [3]: ineffective at blocking the progression of the condition; cell death after near infrared illumination [4]: not evident |
| diphtheria toxin |  |  |  |  |  | ablation of TrkBCreERT2::AviliDTR and TrkB mRNA positive neurons [5]: ~90%; expression of other markers [5]: no change; reduction in the number of NF200 positive neurons [5]: ~40% |
| IL31^SNAP: recombinant IL31 with a C-terminal fusion of SNAP, produced in E. Coli (protein, left off: small tags and cut ends, recombinant IL31 with a C-terminal fusion of SNAP, produced in E. Coli) TCSLSFGAPISKEDLRTTIDLLKQESQDLYNNYSIKQASGMSADESIQLPCFSLDREALTNISVIIAHLEKVKVLSENTVDTSWVIRWLTNISCFNPLNLNISVPGNTDESYDCKVFVLTVLKQFSNCMAELQAKDNTTC | not present | strong fluorescent signal internalized | increased phosphorylation in each pathway | did not evoke scratching | evoked robust scratching; also recorded: induced robust scratching |  |
| IL31: native recombinant IL31 (Peprotech) (protein) TCSLSFGAPISKEDLRTTIDLLKQESQDLYNNYSIKQASGMSADESIQLPCFSLDREALTNISVIIAHLEKVKVLSENTVDTSWVIRWLTNISCFNPLNLNISVPGNTDESYDCKVFVLTVLKQFSNCMAELQAKDNTTC |  |  |  | did not evoke scratching |  |  |
| IL31^K138A-SNAP: recombinant fusion protein of murine IL31 point mutant K138A with SNAP (protein, left off: small tags and cut ends) TCSLSFGAPISKEDLRTTIDLLKQESQDLYNNYSIKQASGMSADESIQLPCFSLDREALTNISVIIAHLEKVKVLSENTVDTSWVIRWLTNISCFNPLNLNISVPGNTDESYDCAVFVLTVLKQFSNCMAELQAKDNTTC | not present | Pronounced fluorescence | increase was absent |  | did not evoke any scratching above baseline levels |  |
